These results are taken from US20230212319A1, “NOVEL ANTIGEN BINDING DOMAINS AND SYNTHETIC ANTIGEN RECEPTORS INCORPORATING THE SAME” (University of Southern California, priority 2020, published 2023).

Where a chain is given by its changes, count along the chain named.

This assay relates to L363 cells. The assay can be described thus: JNG assay, co-culture with L363 cells. The assay is classed as cell-based. To be noted: co-culture with L363. The procedure: Cellular supernatant is collected and assayed for the induction of cytokines (e.g., IL2).
JNG (Jurkat cells expressing EGFP under an NFAT promoter) were infected with lentiviral vectors encoding different single chain and multi-chain SARs by spinfection in the presence of 8 µg/ml of Polybrene® (Sigma, Catalog no. H9268). The Jurkat-NFAT-GFP cells are engineered in such a way that the IL-2 promoter, which carries NFAT binding sites, is cloned upstream of the GFP gene. These cells have been used to study signaling via TCR and CAR. The different SARs were stably expressed in Jurkat NFAT-GFP cells by lentiviral mediated gene transfer, followed by selection with puromycin or blasticidin. No drug selection was used in case the construct lacked an antibiotic resistance gene. The SAR-expressing Jurkat-NFAT-GFP cells were cocultured with the target cells at E:T ratio of approximately 1:2 for approximately 4 hours to 18 hours. When the interaction between SIRs and their target antigen results in activation of the NFAT pathway, GFP expression is induced. […] GFP expression was monitored by FACS analysis. The Jurkat-NFAT-GFP (parental) cells were used as control. The structure of different constructs can be determined based on their names. […] The sequence of the other constructs in the table can be similarly determined from their names and by referring to the different Tables of this disclosure that provide the names and SEQ ID NO of the different modules. Alternatively, the composition and modular architecture of the different SAR constructs can be determined from their sequences by bioinformatics tools, including using nucleic acid and amino acids homology searches. A SAR is considered positive in the assay in case the SAR expressing Jurkat-NFAT-GFP cells show greater % GFP positive cells when cultured with the target cell line as compared to parental Jurkat-NFAT-GFP cells. […] In general, the number +/-, +, 2+, 3+, 4+, 5+ refer to approximately 5%, 10%, 20%, 30%, 40% and 50% GFP positive cells. The % of GFP induction in the above assay is dependent not only the relative strength of the SAR but also, among other factors, on the relative level of expression of the SAR in the JNG cells and the relative level of expression of the target antigen in the target cell line. To control for the difference in gene transduction efficiency of the different SAR constructs, the experiment was conducted with JNG cells transduced with SAR constructs co-expressing a drug resistance gene (e.g., puromycin or PAC) followed by drug selection to generate a stable population of SAR-expressing cells. It is to be noted that the drug resistance gene (e.g., PAC) in the SAR constructs is optional and in vivo studies were conducted with SAR constructs lacking the PAC gene.

B1: 21996 (protein)
chain: MALPVTALLLPLALLLHAARPQVQLVESGGGLVQPGGSLRLSCAASGFTFTNHAMSWVRQAPGKGLELVSSISGNGRTTYYADSVKGRFTISRDISKNTLDLQMNSLRAEDTAVYYCAKDGGETLVDSRGQGTLVTVSSLEDLKNVFPPEVAVFEPSEAEISHTQKATLVCLATGFYPDHVELSWWVNGKEVHSGVCTDPQPLKEQPALNDSRYCLSSRLRVSATFWQNPRNHFRCQVQFYGLSENDEWTQDRAKPVTQIVSAEAWGRADCGFTSESYQQGVLSATILYEILLGKATLYAVLVSALVLMAMVKRKDSRGRAKRSGSGATNFSLLKQAGDVEENPGPTSMDWIWRILFLVGAATGAHSFEVQLLESGGGLVQPGGSLRLSCAASGFIFSIYAMSWVRQAPGKGLEWVSGISGSGVNTYYAHSVKGRFIISRDNSRNTVYLQMNSLRADDTAVYHCANGKGWDGNTWYEDYRGQGTLVTVSSTRIQNPDPAVYQLRDSKSSDKSVCLFTDFDSQTNVSQSKDSDVYITDKCVLDMRSMDFKSNSAVAWSNKSDFACANAFNNSIIPEDTFFPSPESSCDVKLVEKSFETDTNLNFQNLSVIGFRILLLKVAGFNLLMTLRLWSSRAKRSGSGVKQTLNFDLLKLAGDVESNPGPSRGHMTEYKPTVRLATRDDVPRAVRTLAAAFADYPATRHTVDPDRHIERVTELQELFLTRVGLDIGKVWVADDGAAVAVWTTPESVEAGAVFAEIGPRMAELSGSRLAAQQQMEGLLAPHRPKEPAWFLATVGVSPDHQGKGLGSAVVLPGVEAAERAGVPAFLETSAPRNLPFYERLGFTVTADVEVPEGPRTWCMTRKPGA
Take B1: the “NFAT-GFP ASSAY: L363” value was “L363 (+) (refer to approximately 5%, 10%, 20%, 30%, 40% and 50% GFP positive cells)”.

B2: 22014 (protein)
chain: B1 chain with H430D
Take B2: the “NFAT-GFP ASSAY: L363” value was “+/- (refer to approximately 5%, 10%, 20%, 30%, 40% and 50% GFP positive cells)”.

B3: 22009 (protein)
chain: MALPVTALLLPLALLLHAARPLEGKPIPNPLLGLDSTGSGEDLKNVFPPEVAVFEPSKAEIAHTQKATLVCLATGFYPDHVELSWWVNGKEVHSGVCTDPQPLKEQPALNDSRYCLSSRLRVSATFWQNPRNHFRCQVQFYGLSENDEWTQDRAKPVTQIVSAEAWGRADCGITSASYHQGVLSATILYEILLGKATLYAVLVSALVLMAMVKRKDSRGRAKRSGSGATNFSLLKQAGDVEENPGPTSTMDWIWRILFLVGAATGAHSQLQLQESGPGLVKPSETLSLTCTVSGGSVSSSSYYWGWIRQPPGKRLELIGSIYYGGSTYFNPSLKSRVTISVDTSKNQFSLKLSSVTAADTAVYYCAGGDTYGPVGQWPSDYRGQGTLVTVSSGGGGSGGGSFEVQLLESGGGLVQPGGSLRLSCAASGFIFSIYAMSWVRQAPGKGLEWVSGISGSGVNTYYADSVKGRFIISRDNSRNTVYLQMNSLRADDTAVYHCANGKGWDGNTWYEDYRGQGTLVTVSSTREQKLISEEDGSGIQNPDPAVYQLRDSKSSDKSVCLFTDFDSQTNVSQSKDSDVYITDKCVLDMRSMDFKSNSAVAWSNKSDFACANAFNNSIIPEDTFFPSSDVPCDVKLVEKSFETDTNLNFQNLSVIGFRILLLKVAGFNLLMTLRLWSSRAKRSGSGVKQTLNFDLLKLAGDVESNPGPSRGHMTEYKPTVRLATRDDVPRAVRTLAAAFADYPATRHTVDPDRHIERVTELQELFLTRVGLDIGKVWVADDGAAVAVWTTPESVEAGAVFAEIGPRMAELSGSRLAAQQQMEGLLAPHRPKEPAWFLATVGVSPDHQGKGLGSAVVLPGVEAAERAGVPAFLETSAPRNLPFYERLGFTVTADVEVPEGPRTWCMTRKPGA
Consider B3, for which the “NFAT-GFP ASSAY: L363” value was “L363 (+/-) (refer to approximately 5%, 10%, 20%, 30%, 40% and 50% GFP positive cells)”.

B4: 21998 (protein)
chain: MDWIWRILFLVGAATGAHSQLQLQESGPGLVKPSETLSLTCTVSGGSVSSSSYYWGWIRQPPGKRLELIGSIYYGGSTYFNPSLKTRVTISVDTSKNQFSLKLSSVTAADTAVYYCAGGDTYGPVGQWPSDYRGQGTLVTVSSLEDLKNVFPPEVAVFEPSEAEISHTQKATLVCLATGFYPDHVELSWWVNGKEVHSGVCTDPQPLKEQPALNDSRYCLSSRLRVSATFWQNPRNHFRCQVQFYGLSENDEWTQDRAKPVTQIVSAEAWGRADCGFTSESYQQGVLSATILYEILLGKATLYAVLVSALVLMAMVKRKDSRGRAKRSGSGATNFSLLKQAGDVEENPGPTSMDWIWRILFLVGAATGAHSFEQVQLVESGGGLVQPGGSLRLSCAASGFTFTNHAMSWVRQAPGKGLELVSSISGNGRTTYYADSVKGRFTISRDISKNTLDLQMNSLRAEDTAVYYCAKDGGETLVDSRGQGTLVTVSSTRIQNPDPAVYQLRDSKSSDKSVCLFTDFDSQTNVSQSKDSDVYITDKCVLDMRSMDFKSNSAVAWSNKSDFACANAFNNSIIPEDTFFPSPESSCDVKLVEKSFETDTNLNFQNLSVIGFRILLLKVAGFNLLMTLRLWSSRAKRSGSGVKQTLNFDLLKLAGDVESNPGPSRGHMTEYKPTVRLATRDDVPRAVRTLAAAFADYPATRHTVDPDRHIERVTELQELFLTRVGLDIGKVWVADDGAAVAVWTTPESVEAGAVFAEIGPRMAELSGSRLAAQQQMEGLLAPHRPKEPAWFLATVGVSPDHQGKGLGSAVVLPGVEAAERAGVPAFLETSAPRNLPFYERLGFTVTADVEVPEGPRTWCMTRKPGA
Consider B4, for which the “NFAT-GFP ASSAY: L363” value was “L363 (+) (refer to approximately 5%, 10%, 20%, 30%, 40% and 50% GFP positive cells)”.

B5: 22016 (protein)
chain: B4 chain
Consider B5, for which the “NFAT-GFP ASSAY: L363” value was “+/- (refer to approximately 5%, 10%, 20%, 30%, 40% and 50% GFP positive cells)”.
